# “Also recorded” adds a separate entry of the source.
# B1: SCF: Stem cell factor protein (R&D Systems), ligand of the c-Kit receptor (protein)
# chain: KEICGNPVTDNVKDITKLVANLPNDYMITLNYVAGMDVLPSHCWLRDMVIQLSLSLTTLLDKFSNISEGLSNYSIIDKLGKIVDDLVLCMEENAPKNIKESPKRPETRSFTPEEFFSIFNRSIDAFKDFMVASDTSDCVLSSTLGPEKDSRVSVTKPFMLPPVA
# Legend:
# endogenous NSPCs = experiment: In vivo progenitor cell migration, BrdU labeling and intracerebral rmSCF injection; set-up: species or system mouse; details: vs contralateral side and PBS-injected animals, day 7
# [1] = tested on: c-Kit, MAPK and PI3K/Akt pathways in BMVEC-b; experiment: Immunoblot of SCF/c-Kit signal transduction, BMVEC-b; assay type: cell-based, bovine
# Protocol: (§1) Confluent-grown ECs were treated with 50 ng/ml of SCF for 5, 10, 15, and 30 min after 24 hr of serum starvation. The ECs were collected with RIPA lysis buffer (Upstate, Charlottesville, Va.) containing 50 mM NaF, 1 mM Na3VO4, […], and Protease Inhibitor Cocktail (Roche). The antibodies were purchased from Cell Signaling Technology, Inc. (Beverly, Mass.) or as mentioned otherwise. All the primary antibodies were used in a 1:1000 dilution except for the anti-SCF antibody, which was used in a 1:2000 dilution. The primary antibodies were anti-phospho-c-Kit, anti-phospho-MEK1/2 and anti-MEK1/2, anti-phospho-p44/42 MAPK and anti-p44/42 MAPK, anti-phospho-SAPK/JNK and anti-SAPK/JNK, anti-phospho-p38 MAPK and anti-p38 MAPK, anti-phospho-Akt and anti-Akt, anti-phospho-mTOR and anti-mTOR, anti-phospho-4E-BP1 and anti-4E-BP1, anti-SCF and anti-VEGF (Chemicon, Temecula, Calif.), and anti-β-tubulin (Sigma). Re-blotting was done after membranes were stripped by re-blot kit (Chemicon). Tie2 detection in Matrigel plugs from the in vivo Matrigel assay was carried out by immunoprecipitation and immunoblotting. The gel plugs were carefully separated from muscle and skin and homogenized with RIPA lysis buffer. The resulting total tissue lysates ([…]) were immunoprecipitated with Tie2 antibody (Santa Cruz Biotechnology, Inc., Santa Cruz, Calif.) and then analyzed by immunoblot with Tie2 antibody (Zadeh et al. 2004 Am J Pathol 162:467-476).
# HBMEC = experiment: Matrigel tube formation (EC differentiation) assay, HBMEC; assay type: cell-based, human
# Protocol: After the Matrigel (BD Biosciences) formed a solid gel in 24-well plates, serum-starved BMVEC-b cells were seeded on the gel surface at 10^5 cells per well and cultured in treatment medium in the presence or absence of SCF (20 ng/ml). Primary HBMEC were placed on the gel directly at 24×10^3 per well. Tubular formation was observed using an inverted phase contrast microscope, and images were captured at 4 and 18 hr after cell seeding. Each experiment was repeated two or three times.
# BMVEC-b = experiment: Thymidine incorporation in BMVEC-b exposed to SCF; assay type: cell-based, bovine; details: basal medium
# Protocol: After ECs (3×10^3/well) were adhered to 96-well gelatin-coated plates (BD Discovery Labware, Bedford, Mass.), the EC growth medium was replaced by SCF ([…]) (R&D Systems, Minneapolis, Minn.) suspended in treatment medium (basal medium with 0.1% BSA) for an additional 48 hr (HUVEC and HMVEC-d) or 72 hr (BMVEC-b) with renewal of medium at 24 hr intervals. ECs were cultured for 4 hr in 0.25 μCi of [^3H]thymidine (Amersham Pharmacia Biotech, Piscataway, N.J.) at the end. High molecular mass [^3H]-radioactivity was precipitated and counted.
# SCID mice [2] = experiment: In vivo angiogenesis assay, matrigel plug with rmSCF (Example 3); set-up: species or system mouse; details: rmSCF 50 ng/ml, subcutaneous, 7 days, vs PBS control
# Protocol: Recombinant mouse SCF (rmSCF) was used at 50 ng/ml in an in vivo angiogenesis assay. The matrigel plug containing SCF or PBS control was placed subcutaneously in SCID mice for 7 days, and the blood vessel formation within the gel was examined by H&E staining. […] In the higher magnification figure on the right side, the red blood cells inside of the newly formed vessel are indicated by an arrow.
# SCID mice [3] = experiment: In vivo angiogenesis assay, subcutaneous Matrigel plugs with SCF or β-FGF; set-up: species or system mouse; details: subcutaneous Matrigel in adult SCID mice, fourteen days after injection
# Protocol: as §1
# All adult mice (6-8 weeks of age) were from NCI-Fredrick, and the animal experiments were conducted on an animal experimentation protocol approved by the NCI's animal protection committee (the “ACUC”). […]
# [4] = tested on: c-Kit, MAPK and PI3K/Akt pathways in HBMEC; experiment: Immunoblot of SCF/c-Kit signal transduction, HBMEC; assay type: cell-based, human; details: SCF 50 ng/ml
# Protocol: as §1
# [5] = SCF 50 ng/ml after serum starvation
molecule,measurement,setting,value
B1,BrdU-positive cells in the SCF-injected area,endogenous NSPCs,Significantly more BrdU labeled cells
same,duration of p38 MAPK activation,[1]; SCF 50 ng/ml,over 30 min
same,phosphorylation of 4E-BP1,[1]; SCF 50 ng/ml,increased phosphorylation of 4E-BP1
same,phosphorylation of Akt,[1]; SCF 50 ng/ml,significantly enhanced
same,phosphorylation of MEK1/2,[1]; SCF 50 ng/ml,dramatically increased
same,phosphorylation of p44/42 MAPK,[1]; SCF 50 ng/ml,dramatically increased
same,time of SAPK/JNK activation following SCF exposure,[1]; SCF 50 ng/ml,10 to 15 min
same,duration of c-Kit auto-tyrosine-phosphorylation,[1]; [5],30 min
same,time of peak c-Kit auto-tyrosine-phosphorylation,[1]; [5],10 to 15 min
same,time to mature appearing capillary-like structures,HBMEC,≤ 18 h
same,time to migration in Matrigel,HBMEC,≤ 4 h
same,BMVEC-b proliferation increase (thymidine incorporation),BMVEC-b; 1 ng of SCF per ml for 72 hr,approximately 6 fold
same,BMVEC-b proliferation increase (thymidine incorporation),BMVEC-b; 10 ng of SCF per ml for 72 hr,~7 fold
same,proliferation (thymidine incorporation),"BMVEC-b; BMVEC-b, 72 hr",stimulated proliferation in all three primary ECs in a dose-dependent manner
same,blood vessel formation within the matrigel plug (H&E),SCID mice [2],stimulates angiogenesis
same,Tie2 protein in Matrigel plug,SCID mice [3],high Tie2 expression
same,"angiogenesis in Matrigel plug (H&E, vWF-positive vessels)",SCID mice [3],high density of blood vessels; also recorded: induced substantial angiogenesis
same,phosphorylation of Akt,[4],induced immediate phosphorylation
same,phosphorylation of SAPK/JNK,[4],could not induce phosphorylation
same,phosphorylation of c-Kit,[4],induced immediate phosphorylation
same,phosphorylation of p38 MAPK,[4],could not induce phosphorylation
same,phosphorylation of p44/42 MAPK,[4],induced immediate phosphorylation

# — US20060286117A1, “Neuronally expressed stem cell factor modulates angiogenesis and neural stem cell migration to areas of brain injury” (priority 2003, published 2006)
